# Laboratory results reported in paper PMC12525521, “N-Terminal Metal-Binding Domain of Arabidopsis IBR5 Is Important for Its in Planta Functions” (International Journal of Molecular Sciences, 2025).
# Where a chain is given by its changes, count along the chain named. Names may count otherwise. “And” between values parts separate entries of the source, which are not always exact repeats. Identical values can stand only once.
# B1: SUMO-AtIBR5-p (N-terminal 6x His-SUMO tag fused to aa 48-257 of AtIBR5, only the DSP_plant_IBR5-like domain) (domain or fragment, Arabidopsis thaliana, UniProt Q84JU4 48-257, looked up)
# chain: AFPSEILPEFLYLGSYDNASRSELLKTQGISRVLNTVPMCQNLYRNSFTYHGLDNEKVLQFDDAIKFLDQCEKDKARVLVHCMSGKSRSPAVVVAYLMKRKGWRLAESHQWVKQRRPSTDISPEFYQQLQEFEQGIFGSEMMSAMNINDAPTFGFGFPKIDNQAQAPVFNNAPTSSIFSSPASSIPPQEFTFGATPPKPTTGGDIAMDGS
# notes: One glycine residue stands as a linker between the 6x His-SUMO tag and the AtIBR5 stretch; also called N-terminally truncated AtIBR5; source: E. coli BL21 HiControl, purified (Ni-NTA, SEC); not shown: His6, N-terminal, kept; SUMO, N-terminal, kept
# B2: SUMO-AtIBR5 (N-terminal 6X His-tagged SUMO fused to the 257-amino acid-long Arabidopsis thaliana indole-3-butyric acid response 5) (enzyme, UniProt Q84JU4 1-257, looked up)
# chain: MRKRERENPCSICGHYHKYEEGEVCGVCGHCMPVSSDTVAPQQVHVSAFPSEILPEFLYLGSYDNASRSELLKTQGISRVLNTVPMCQNLYRNSFTYHGLDNEKVLQFDDAIKFLDQCEKDKARVLVHCMSGKSRSPAVVVAYLMKRKGWRLAESHQWVKQRRPSTDISPEFYQQLQEFEQGIFGSEMMSAMNINDAPTFGFGFPKIDNQAQAPVFNNAPTSSIFSSPASSIPPQEFTFGATPPKPTTGGDIAMDGS
# notes: AtIBR5, dual-specificity phosphatase, Arabidopsis thaliana, UniProt Q84JU4, AT2G04550; One glycine residue (codon GGU) stands as a linker between the 6X His-SUMO tag and AtIBR5; Cloned with the Expresso T7 SUMO system (pETite N-His SUMO Kan vector); Expected monomer about 42 kDa; also called SUMO-AtIBR5 wild-type protein; source: E. coli BL21 HiControl, purified (Ni-NTA, SEC); not shown: His6, …
# B3: SUMO-AtIBR5-q (quadruple mutant of SUMO-AtIBR5, all four conserved cysteine residues substituted with glycine) (enzyme, Arabidopsis thaliana, UniProt Q84JU4 1-257, looked up)
# chain: B2 chain with C10G, C13G, C25G, C28G
# notes: One glycine residue stands as a linker between the 6x His-SUMO tag and AtIBR5; also called quadruple AtIBR5 mutant; C10G C13G C25G C28G; source: E. coli BL21 HiControl, purified (Ni-NTA, SEC); not shown: His6, N-terminal, kept; SUMO, N-terminal, kept
# Target: the molecule itself
# Assay: SEC; FPLC on HiPrep 26/60 Sephacryl S-300 HR after Ni-NTA purification; 100 mM Tris-HCl pH 8.0, 150 mM NaCl; sizes estimated from a standard curve with the Bio-Rad Gel Filtration Standard; His-SUMO tag kept
row,Protein,stoichiometry N
1,B1,2 and 4
2,B2,4 and 2
3,B3,2 and 4
